From publication PMC10845952 come the findings set out here.

The target in assay [1] is MecA fused to the RenG N-terminal domain (1-155) (S. mutans) (UniProt Q8DW33). As to the kind of experiment: split reporter (BiFC, NanoBiT).
The target in assay [2] is RNase J1 fused to the RenG N-terminal domain (NTD1, 1-155) (S. mutans). Briefly: split reporter (BiFC, NanoBiT); RenG split luciferase complementation assay (SLCA) in live S. mutans at mid-log phase, coelenterazine-h, normalised to OD600; signal relative to unfused fragments; relative binding affinity = SLCA value divided by the value of the whole-RenG chimera of the less abundant partner.

Chain of MecA fused to the RenG N-terminal domain (1-155) (S. mutans) (Q8DW33 whole entry, the tested form may be a part): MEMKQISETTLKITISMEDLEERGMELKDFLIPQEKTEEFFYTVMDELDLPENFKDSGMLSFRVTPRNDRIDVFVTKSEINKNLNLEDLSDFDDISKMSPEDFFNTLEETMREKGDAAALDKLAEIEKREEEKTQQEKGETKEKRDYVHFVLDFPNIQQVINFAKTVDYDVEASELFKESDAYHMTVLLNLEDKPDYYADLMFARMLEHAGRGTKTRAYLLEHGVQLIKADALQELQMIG

“ComX fused to the RenG C-terminal domain (156-314) (natural protein)” gave a relative binding affinity (%) in assay [1] of 6.3%.

As for “GyrA fused to the RenG C-terminal domain (156-314) (natural protein)”, the relative binding affinity (%) in assay [1] was found to be 12.9%.

As for “PcrA fused to the RenG C-terminal domain (156-314) (from UniProt Q8DTY6 1-733) (natural protein)”, the relative binding affinity (%) in assay [1] amounted to 6.36%.

“RNase J2 fused to the RenG C-terminal domain (CTD1, 156-314) (natural protein)” yielded a relative binding affinity (%) in assay [2] of 97.8%.

In assay [1], “SpaP fused to the RenG C-terminal domain (156-314) (from UniProt P23504 998-1532) (natural protein)” had a relative binding affinity (%) of 1.72%.
